Drawing on PMC3418449, this text covers binding result, IC50 and Kd for 7 molecules.

Where two headings read alike, the source gives them in different places.

In data set [1] the target is T1, GRK2 (S670A), flow cytometry and crystallography (bovine, UniProt P21146 1-689, S670A). Briefly: competition.
Data set [2] deals with T1, GRK2 (S670A), flow cytometry and …. Briefly: competition. This is another data set of the same source.
Data set [3] has the same target. Briefly: competition. The source holds these as a separate data set.
Data set [4] has the same target. Nature of the data set: flow cytometry bead binding. (In general: In flow cytometry, cells or beads pass a laser one at a time.)
For data set [5], the target named is GRK2-D335A, flow cytometry (UniProt P21146 1-689, D335A). Briefly: flow cytometry bead binding.
Sequence of GRK2-D335A, flow cytometry (P21146 whole entry D335A): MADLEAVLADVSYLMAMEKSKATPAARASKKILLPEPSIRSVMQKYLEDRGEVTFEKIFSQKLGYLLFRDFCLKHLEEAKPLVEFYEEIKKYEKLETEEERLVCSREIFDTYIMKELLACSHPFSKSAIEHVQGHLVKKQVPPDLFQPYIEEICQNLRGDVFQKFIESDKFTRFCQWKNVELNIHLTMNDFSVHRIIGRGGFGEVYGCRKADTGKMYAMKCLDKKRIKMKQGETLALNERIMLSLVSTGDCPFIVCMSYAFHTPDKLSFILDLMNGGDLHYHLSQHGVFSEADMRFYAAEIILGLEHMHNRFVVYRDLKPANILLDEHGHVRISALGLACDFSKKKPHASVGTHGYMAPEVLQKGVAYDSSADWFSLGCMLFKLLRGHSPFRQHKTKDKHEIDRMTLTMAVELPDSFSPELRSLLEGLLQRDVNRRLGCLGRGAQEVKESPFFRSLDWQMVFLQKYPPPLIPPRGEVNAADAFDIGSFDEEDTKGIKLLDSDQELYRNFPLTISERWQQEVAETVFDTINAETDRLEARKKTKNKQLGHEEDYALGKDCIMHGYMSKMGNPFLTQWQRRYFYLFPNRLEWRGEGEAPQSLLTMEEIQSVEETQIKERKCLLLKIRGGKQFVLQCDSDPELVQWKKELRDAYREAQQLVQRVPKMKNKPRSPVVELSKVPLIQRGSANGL
For data set [6], the target named is GRK2-H280A, flow cytometry (UniProt P21146 1-689, H280A). Briefly: flow cytometry bead binding.
Sequence of GRK2-H280A, flow cytometry (P21146 whole entry H280A): as the sequence (P21146 whole entry D335A) above, with H280A, A335D counted along it
In data set [7] the target is T1, GRK2 (S670A), flow cytometry and …. Nature of the data set: flow cytometry bead binding. The source holds these as a separate data set.
For data set [8], the target named is GRK2-FG-6A, flow cytometry (UniProt P21146 1-689, R392A;H394A;K395A;K397A;K399A;H400A). Briefly: competition.
Sequence of GRK2-FG-6A, flow cytometry (P21146 whole entry R392A/H394A/K395A/K397A/K399A/H400A): as the sequence (P21146 whole entry D335A) above, with A335D, R392A, H394A, K395A, K397A, K399A, H400A counted along it
The target of data set [9] is GRK6 palmitoylation-deficient (human, UniProt P43250 1-576, C561S;C562S;C565S). Briefly: competition.
Sequence of GRK6 palmitoylation-deficient (P43250 whole entry C561S/C562S/C565S, the tested form may be a part): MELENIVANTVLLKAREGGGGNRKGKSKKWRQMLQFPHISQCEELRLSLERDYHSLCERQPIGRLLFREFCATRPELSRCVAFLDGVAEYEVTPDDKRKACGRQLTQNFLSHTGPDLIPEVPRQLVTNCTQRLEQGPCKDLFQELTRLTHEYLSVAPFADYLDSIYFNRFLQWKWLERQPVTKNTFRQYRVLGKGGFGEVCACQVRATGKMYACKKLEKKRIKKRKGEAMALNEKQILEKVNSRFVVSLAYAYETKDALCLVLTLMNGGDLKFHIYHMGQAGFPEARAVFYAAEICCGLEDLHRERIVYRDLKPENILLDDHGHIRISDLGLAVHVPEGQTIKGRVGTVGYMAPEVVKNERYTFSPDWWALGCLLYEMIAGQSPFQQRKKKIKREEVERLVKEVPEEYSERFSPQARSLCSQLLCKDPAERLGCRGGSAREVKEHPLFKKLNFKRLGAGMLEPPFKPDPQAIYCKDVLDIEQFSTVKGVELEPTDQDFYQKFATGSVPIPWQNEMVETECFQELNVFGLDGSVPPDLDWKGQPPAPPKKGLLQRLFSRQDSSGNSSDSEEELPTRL
For data set [10], the target named is T2, GRK1 truncated at residue 535 (bovine, UniProt P28327 1-535).
T2 sequence: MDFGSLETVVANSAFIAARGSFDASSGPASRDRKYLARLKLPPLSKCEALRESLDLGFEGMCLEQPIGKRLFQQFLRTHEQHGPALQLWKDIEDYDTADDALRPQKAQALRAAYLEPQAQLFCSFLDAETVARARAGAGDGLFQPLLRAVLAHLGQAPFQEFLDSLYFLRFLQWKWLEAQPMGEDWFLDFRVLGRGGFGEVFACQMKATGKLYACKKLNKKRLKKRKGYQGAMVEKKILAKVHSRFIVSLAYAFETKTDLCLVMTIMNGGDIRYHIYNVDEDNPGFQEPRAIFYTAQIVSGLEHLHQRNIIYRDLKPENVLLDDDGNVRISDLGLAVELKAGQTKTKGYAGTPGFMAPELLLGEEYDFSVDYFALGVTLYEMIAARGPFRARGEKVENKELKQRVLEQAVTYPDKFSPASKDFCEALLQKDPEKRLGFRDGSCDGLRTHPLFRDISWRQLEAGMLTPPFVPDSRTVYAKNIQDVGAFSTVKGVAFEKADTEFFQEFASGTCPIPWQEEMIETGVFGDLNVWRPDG
Briefly: competition.

Data set [11] has as its target T1, GRK2 (S670A), flow cytometry and …. Briefly: competition. This is another data set of the same source.
The target is the same in data set [12]. Briefly: flow cytometry bead binding. The source holds these as a separate data set.

T1 sequence (P21146 whole entry S670A): as the sequence (P21146 whole entry D335A) above, with A335D, S670A counted along it

Take GGCAGACCAUCCGGGAGAGAAACUUGCC (structured_RNA) [C13.28A51C]: the binding result in data set [1] was “no binding”.

For the molecule AGACCAUACGGGAGAGAAACUU (structured_RNA) [C13.22], the IC50 – broadly, the concentration that gives 50% inhibition – in [2] was found to be 46 ± 9 nM.

GGCGACCAUACGGGAGAGAAACUGCC (structured_RNA) [C13.26]: the IC50 in [2] came out at 0.9 ± 0.03 nM.

As for GGCAGACCAUACGGGAGAGAAACUUGCC (ssRNA) [C13.28], the IC50 stood at 0.44 ± 0.19 nM in data set [3]; 1.5 ± 0.1 nM in data set [2]; 510 ± 170 nM in data set [8]; 210 ± 10 nM in [9]; 590 ± 160 nM in data set [10]; 3.3 ± 0.3 nM in data set [11]. Besides, the Kd (usually the constant that tells how readily two partners part at equilibrium) in [4] turned out to be 3.8 ± 1.2 nM; in data set [7] it was 1.2 ± 0.6 nM. Moreover, the binding result in data set [5] and in [6] was “binds” each time.

In the case of CCAUACGGGAGAGAAACU (ssRNA) [C13.18], in [3], the IC50 came out at 100 ± 41 nM. For the same molecule, the affinity in [12], expressed as Kd, was 35 ± 5 nM.

In turn, GGGUAGCACAGACCAUACGGGAGAGAAACUUGUGCAACCC (structured_RNA) [C13.40] gave an IC50 in data set [2] of 1.3 ± 0.1 nM.

GGGCAGACCAUACGGGAGAGAAACUUGCC (structured_RNA) [C13.29] returned an IC50 in [2] of 0.91 ± 0.07 nM.
